Assay results reported in ChEMBL document CHEMBL3526031, “Mechanistic studies on the absorption and disposition of scutellarin in humans: selective OATP2B1-mediated hepatic uptake is a likely key determinant for its unique pharmacokinetic characteristics” (Drug Metab Dispos, 2012).

How the values were obtained:
Type in all cases: ADME
[1] = substrate: O=c1cc(-c2ccc(O)cc2)oc2cc(O)c(O)c(O)c12; experiment: Drug metabolism assessed as human recombinant UGT1A3-mediated formation of scutellarein-7-O-glucuronide after 25 mins by HPLC/UV analysis
[2] = substrate: O=c1cc(-c2ccc(O)cc2)oc2cc(O)c(O)c(O)c12; experiment: Drug metabolism assessed as human recombinant UGT1A6-mediated formation of scutellarein-7-O-glucuronide after 25 mins by HPLC/UV analysis
[3] = substrate: O=c1cc(-c2ccc(O)cc2)oc2cc(O)c(O)c(O)c12; experiment: Drug metabolism assessed as human recombinant UGT1A7-mediated formation of scutellarein-7-O-glucuronide after 25 mins by HPLC/UV analysis
[4] = substrate: O=c1cc(-c2ccc(O)cc2)oc2cc(O)c(O)c(O)c12; experiment: Drug metabolism assessed as human recombinant UGT1A8-mediated formation of scutellarein-7-O-glucuronide after 25 mins by HPLC/UV analysis

B1: UDP-glucuronosyltransferase 1A3 (Homo sapiens) (protein)
chain: MATGLQVPLPWLATGLLLLLSVQPWAESGKVLVVPIDGSHWLSMREVLRELHARGHQAVVLTPEVNMHIKEENFFTLTTYAISWTQDEFDRHVLGHTQLYFETEHFLKKFFRSMAMLNNMSLVYHRSCVELLHNEALIRHLNATSFDVVLTDPVNLCAAVLAKYLSIPTVFFLRNIPCDLDFKGTQCPNPSSYIPRLLTTNSDHMTFMQRVKNMLYPLALSYICHAFSAPYASLASELFQREVSVVDILSHASVWLFRGDFVMDYPRPIMPNMVFIGGINCANRKPLSQEFEAYINASGEHGIVVFSLGSMVSEIPEKKAMAIADALGKIPQTVLWRYTGTRPSNLANNTILVKWLPQNDLLGHPMTRAFITHAGSHGVYESICNGVPMVMMPLFGDQMDNAKRMETKGAGVTLNVLEMTSEDLENALKAVINDKSYKENIMRLSSLHKDRPVEPLDLAVFWVEFVMRHKGAPHLRPAAHDLTWYQYHSLDVIGFLLAVVLTVAFITFKCCAYGYRKCLGKKGRVKKAHKSKTH
[1]
  Km: 7.34 µM
  Vmax: 0.00178 µmol/min/mg
  Vmax/Km: 243 µL/min/mg

B2: UDP-glucuronosyltransferase 1A6 (Homo sapiens) (protein)
chain: MACLLRSFQRISAGVFFLALWGMVVGDKLLVVPQDGSHWLSMKDIVEVLSDRGHEIVVVVPEVNLLLKESKYYTRKIYPVPYDQEELKNRYQSFGNNHFAERSFLTAPQTEYRNNMIVIGLYFINCQSLLQDRDTLNFFKESKFDALFTDPALPCGVILAEYLGLPSVYLFRGFPCSLEHTFSRSPDPVSYIPRCYTKFSDHMTFSQRVANFLVNLLEPYLFYCLFSKYEELASAVLKRDVDIITLYQKVSVWLLRYDFVLEYPRPVMPNMVFIGGINCKKRKDLSQEFEAYINASGEHGIVVFSLGSMVSEIPEKKAMAIADALGKIPQTVLWRYTGTRPSNLANNTILVKWLPQNDLLGHPMTRAFITHAGSHGVYESICNGVPMVMMPLFGDQMDNAKRMETKGAGVTLNVLEMTSEDLENALKAVINDKSYKENIMRLSSLHKDRPVEPLDLAVFWVEFVMRHKGAPHLRPAAHDLTWYQYHSLDVIGFLLAVVLTVAFITFKCCAYGYRKCLGKKGRVKKAHKSKTH
[2]
  Km: 27 µM
  Vmax: 0.00167 µmol/min/mg
  Vmax/Km: 62 µL/min/mg

B3: UDP-glucuronosyltransferase 1A7 (Homo sapiens) (protein)
chain: MARAGWTGLLPLYVCLLLTCGFAKAGKLLVVPMDGSHWFTMQSVVEKLILRGHEVVVVMPEVSWQLGRSLNCTVKTYSTSYTLEDQDREFMVFADARWTAPLRSAFSLLTSSSNGIFDLFFSNCRSLFNDRKLVEYLKESCFDAVFLDPFDACGLIVAKYFSLPSVVFARGIFCHYLEEGAQCPAPLSYVPRLLLGFSDAMTFKERVWNHIMHLEEHLFCPYFFKNVLEIASEILQTPVTAYDLYSHTSIWLLRTDFVLEYPKPVMPNMIFIGGINCHQGKPVPMEFEAYINASGEHGIVVFSLGSMVSEIPEKKAMAIADALGKIPQTVLWRYTGTRPSNLANNTILVKWLPQNDLLGHPMTRAFITHAGSHGVYESICNGVPMVMMPLFGDQMDNAKRMETKGAGVTLNVLEMTSEDLENALKAVINDKSYKENIMRLSSLHKDRPVEPLDLAVFWVEFVMRHKGAPHLRPAAHDLTWYQYHSLDVIGFLLAVVLTVAFITFKCCAYGYRKCLGKKGRVKKAHKSKTH
[3]
  Km: 33.3 µM
  Vmax: 0.000795 µmol/min/mg
  Vmax/Km: 23.9 µL/min/mg

B4: UDP-glucuronosyltransferase 1A8 (Homo sapiens) (protein)
chain: MARTGWTSPIPLCVSLLLTCGFAEAGKLLVVPMDGSHWFTMQSVVEKLILRGHEVVVVMPEVSWQLGKSLNCTVKTYSTSYTLEDLDREFMDFADAQWKAQVRSLFSLFLSSSNGFFNLFFSHCRSLFNDRKLVEYLKESSFDAVFLDPFDACGLIVAKYFSLPSVVFARGIACHYLEEGAQCPAPLSYVPRILLGFSDAMTFKERVRNHIMHLEEHLFCQYFSKNALEIASEILQTPVTAYDLYSHTSIWLLRTDFVLDYPKPVMPNMIFIGGINCHQGKPLPMEFEAYINASGEHGIVVFSLGSMVSEIPEKKAMAIADALGKIPQTVLWRYTGTRPSNLANNTILVKWLPQNDLLGHPMTRAFITHAGSHGVYESICNGVPMVMMPLFGDQMDNAKRMETKGAGVTLNVLEMTSEDLENALKAVINDKSYKENIMRLSSLHKDRPVEPLDLAVFWVEFVMRHKGAPHLRPAAHDLTWYQYHSLDVIGFLLAVVLTVAFITFKCCAYGYRKCLGKKGRVKKAHKSKTH
[4]
  Km: 19 µM
  Vmax: 0.000673 µmol/min/mg
  Vmax/Km: 35.4 µL/min/mg
